Test results: patent US20170369576A1 (UBI US, published 2017)

Experiments:
recombinant soluble CD4 [1] = molecular target: T1, recombinant soluble CD4 (UniProt P01730 26-390, limits assumed); experiment: competition ELISA on coated sCD4/p2704a mixture; reference dB4
T1 construct: also called sCD4; rsCD4

recombinant soluble CD4 [2] = molecular target: T1, recombinant soluble CD4; experiment: competition ELISA on coated sCD4/p2704a mixture; inhibition of B4-biotin (10 µg/mL)
[3] = molecular target: T2, human CD4, membrane-bound on cells (HPB-ALL cells, blood/PBMC CD4+ T cells, assay target cells) (human, UniProt P01730 26-458); experiment: cell-based or functional assay
[4] = molecular target: T2, human CD4, membrane-bound on cells …; experiment: cell-based or functional assay; remark: listed apart in the source
[5] = molecular target: T2, human CD4, membrane-bound on cells …; experiment: cell-based or functional assay; remark: listed apart in the source
[6] = molecular target: T2, human CD4, membrane-bound on cells …; experiment: competition FACS on HPB-ALL cells; reference dB4
[7] = molecular target: T2, human CD4, membrane-bound on cells …; experiment: competition FACS on HPB-ALL cells; inhibition of dB4-Alexa (250 ng/mL)
Protocol: On V-bottomed microplates, aliquots of 2×10⁵ cells in 0.1 mL per well were added, centrifuged, and liquid discarded. […] The cells were washed once and the liquid discarded after centrifugation. To each well, aliquots of 200 μL of binding buffer were added and transferred to microdilution tubes for flow cytometric analysis. The binding intensity (mean fluorescence intensity, MFI), based on an inlet of 5,000 cells per sample, was read on FACS.

B1: murine monoclonal antibody B4 (mAb B4) (antibody, V domains shown)
VH: QVQLQQSGPELVKPGASVRMSCKASGYTFTDYVIHWVKQRTGQGLEWIGEIYPGSGSAYSNAKFKDKATLTADKSSNTAYMQLSSLTSEDSAVYFCARRGNGTGFAYWGQGTLVTVSA
VL: DIVLTQSPASLAVSLGQRATISCKAGQSVDYDGDSYMNWYQQKPGQPPKLLIYVASNLESGIPARFSGSGSGTDFTLNIHPVEEEDAATYYCQQSYKDPLTFGAGTKLELK
modifications: N-glycosylated at Asn101 in the Fv
Recombinant soluble CD4 [1]
  IC50 ratio of B4 to dB4: 0.68 ratio
Recombinant soluble CD4 [2]
  IC50: 5.54 µg/mL
[3]
  IC50 entry inhibition, PhenoSense, control virus 92HT594: 0.021 µg/mL
  IC50 entry inhibition, PhenoSense, control virus JRCSF: 0.034 µg/mL
  IC50 entry inhibition, PhenoSense, control virus JRFL: 0.074 µg/mL
  IC50 entry inhibition, PhenoSense, isolate 92/RW/008 (clade A): 0.026 µg/mL
  IC50 entry inhibition, PhenoSense, isolate 92/RW/024 (clade A): 0.055 µg/mL
  IC50 entry inhibition, PhenoSense, isolate 92/TH/005 (clade EA): 0.012 µg/mL
  IC50 entry inhibition, PhenoSense, isolate 92/TH/006 (clade EA): 0.022 µg/mL
  IC50 entry inhibition, PhenoSense, isolate 92/TH/007 (clade EA): 0.013 µg/mL
  IC50 entry inhibition, PhenoSense, isolate 92/TH/009 (clade EA): 0.021 µg/mL
  IC50 entry inhibition, PhenoSense, isolate 92/TH/019 (clade EA): 0.022 µg/mL
  IC50 entry inhibition, PhenoSense, isolate 92/TH/020 (clade EA): 0.015 µg/mL
  IC50 entry inhibition, PhenoSense, isolate 92/TH/021 (clade EA): 0.017 µg/mL
  IC50 entry inhibition, PhenoSense, isolate 92/TH/022 (clade EA): 0.012 µg/mL
  IC50 entry inhibition, PhenoSense, isolate 92/TH/024 (clade EA): 0.01 µg/mL
  IC50 entry inhibition, PhenoSense, isolate 92/UG/001 (clade D): 0.018 µg/mL
  IC50 entry inhibition, PhenoSense, isolate 92/UG/005 (clade D): 0.019 µg/mL
  IC50 entry inhibition, PhenoSense, isolate 92/UG/021 (clade D): 0.017 µg/mL
  IC50 entry inhibition, PhenoSense, isolate 92/UG/024 (clade D): 0.04 µg/mL
  IC50 entry inhibition, PhenoSense, isolate 92/UG/035 (clade D): 0.011 µg/mL
  IC50 entry inhibition, PhenoSense, isolate 92/UG/038 (clade D): 0.014 µg/mL
  IC50 entry inhibition, PhenoSense, isolate 92/UG/046 (clade D): 0.015 µg/mL
  IC50 entry inhibition, PhenoSense, isolate 93/BR/019 (clade BF): 0.013 µg/mL
  IC50 entry inhibition, PhenoSense, isolate 93/BR/020 (clade F): 0.024 µg/mL
  IC50 entry inhibition, PhenoSense, isolate 93/IN/101 (clade C): 0.016 µg/mL
  IC50 entry inhibition, PhenoSense, isolate 93/RW/029 (clade A): 0.019 µg/mL
  IC50 entry inhibition, PhenoSense, isolate 93/TH/057 (clade E): 0.023 µg/mL
  IC50 entry inhibition, PhenoSense, isolate 93/TH/305 (clade E): 0.021 µg/mL
  IC50 entry inhibition, PhenoSense, isolate 93/UG/053 (clade D): 0.02 µg/mL
  IC50 entry inhibition, PhenoSense, isolate 93/UG/065 (clade D): 0.015 µg/mL
  IC50 entry inhibition, PhenoSense, isolate 93/UG/067 (clade D): 0.016 µg/mL
  IC50 entry inhibition, PhenoSense, isolate 93/UG/070 (clade D): 0.011 µg/mL
  IC50 entry inhibition, PhenoSense, isolate 93/UG/077 (clade A): 0.012 µg/mL
  IC50 entry inhibition, PhenoSense, isolate 93/UG/082 (clade D): 0.016 µg/mL
  IC50 entry inhibition, PhenoSense, isolate 93/UG/086 (clade D): 0.015 µg/mL
  IC50 entry inhibition, PhenoSense, isolate 94/UG/103 (clade A): 0.021 µg/mL
  IC50 entry inhibition, PhenoSense, isolate 94/UG/105 (clade D): 0.021 µg/mL
  IC50 entry inhibition, PhenoSense, isolate 94/UG/114 (clade D): 0.015 µg/mL
  IC50 entry inhibition, PhenoSense, isolate 94/UG/117 (clade D): 0.017 µg/mL
  IC50 entry inhibition, PhenoSense, isolate 94/UG/118 (clade D): 0.02 µg/mL
  IC50 entry inhibition, PhenoSense, isolate 10215-6 (clade C): 0.018 µg/mL
  IC50 entry inhibition, PhenoSense, isolate 10362 (clade C): 0.02 µg/mL
  IC50 entry inhibition, PhenoSense, isolate 11657-3 (clade C): 0.025 µg/mL
  IC50 entry inhibition, PhenoSense, isolate 20635-4 (clade C): 0.02 µg/mL
  IC50 entry inhibition, PhenoSense, isolate 21068 (clade C): 0.011 µg/mL
  IC50 entry inhibition, PhenoSense, isolate CA1 (clade A): 0.011 µg/mL
  IC50 entry inhibition, PhenoSense, isolate CA2 (clade A): 0.018 µg/mL
  IC50 entry inhibition, PhenoSense, isolate CA3 (clade A): 0.019 µg/mL
  IC50 entry inhibition, PhenoSense, isolate CC1 (clade C): 0.016 µg/mL
  IC50 entry inhibition, PhenoSense, isolate CC2 (clade C): 0.021 µg/mL
  IC50 entry inhibition, PhenoSense, isolate CC3 (clade C): 0.012 µg/mL
  IC50 entry inhibition, PhenoSense, isolate CC4 (clade C): 0.013 µg/mL
  IC50 entry inhibition, PhenoSense, isolate CC5 (clade C): 0.019 µg/mL
  IC50 entry inhibition, PhenoSense, isolate CC6 (clade C): 0.018 µg/mL
  IC50 entry inhibition, PhenoSense, isolate CC7 (clade C): 0.013 µg/mL
  IC50 entry inhibition, PhenoSense, isolate CC8 (clade C): 0.019 µg/mL
  IC50 entry inhibition, PhenoSense, isolate CC9 (clade C): 0.02 µg/mL
  IC50 entry inhibition, PhenoSense, isolate CC10 (clade C): 0.015 µg/mL
  IC50 entry inhibition, PhenoSense, isolate CD1 (clade D): 0.016 µg/mL
  IC50 entry inhibition, PhenoSense, isolate CF2 (clade F): 0.016 µg/mL
  IC50 entry inhibition, PhenoSense, isolate CF3 (clade F): 0.024 µg/mL
  IC50 entry inhibition, PhenoSense, isolate CF4 (clade F): 0.019 µg/mL
  IC50 entry inhibition, PhenoSense, isolate CF5 (clade F): 0.018 µg/mL
  IC50 entry inhibition, PhenoSense, isolate CF6 (clade F): 0.018 µg/mL
  IC50 entry inhibition, PhenoSense, isolate CF7 (clade F): 0.019 µg/mL
  IC50 entry inhibition, PhenoSense, isolate CF8 (clade F): 0.017 µg/mL
  IC50 entry inhibition, PhenoSense, isolate CG1 (clade G): 0.018 µg/mL
  IC50 entry inhibition, PhenoSense, isolate CG2 (clade G): 0.027 µg/mL
  IC50 entry inhibition, PhenoSense, isolate CG3 (clade G): 0.016 µg/mL
  IC50 entry inhibition, PhenoSense, isolate CG4 (clade G): 0.013 µg/mL
  IC50 entry inhibition, PhenoSense, isolate CJ1 (clade J): 0.018 µg/mL
  IC50 entry inhibition, PhenoSense, isolate CJ2 (clade J): 0.019 µg/mL
  IC50 entry inhibition, PhenoSense, isolate CMU02 (clade EA): 0.011 µg/mL
  IC50 entry inhibition, PhenoSense, isolate CMU06 (clade E): 0.026 µg/mL
  IC50 entry inhibition, PhenoSense, isolate MW/93/959 (clade C): 0.019 µg/mL
  IC50 entry inhibition, PhenoSense, isolate MW/93/960 (clade C): 0.01 µg/mL
  IC50 entry inhibition, PhenoSense, isolate QZ4589 (clade E?): 0.036 µg/mL
  average IC50 entry inhibition, PhenoSense, all viruses of Table 3: 0.018 µg/mL
[4]
  IC50 of entry inhibition, second cluster, panel of over 850 Env pseudotype viruses: ~10 µg/mL
[5]
  IC50 of HIV entry inhibition, pseudotype virus 92TH594 (R5/X4), U87-CD4+/CCR5+/CXCR4+ cells: 0.05 µg/mL
  IC50 of HIV entry inhibition, pseudotype virus HXB2 (X4), U87-CD4+/CCR5+/CXCR4+ cells: 0.4 µg/mL
  IC50 of HIV entry inhibition, pseudotype virus JRCSF (R5), U87-CD4+/CCR5+/CXCR4+ cells: 0.04 µg/mL
[6]
  IC50 ratio of B4 to dB4: 0.69 ratio
[7]
  IC50: 0.135 µg/mL
